Target: GFP-encoding lentiviral particles

StrepTactin Superflow column (0.2 mL resin bed, 3 mg binding capacity per mL; IBA Lifesciences GmbH)
GFP+ cells (gate over CD8- and CD8+ cells) among T cells five days after transduction with the biotin elution fraction of the column without VBP (-VB), by flow cytometry: 0.069%
